# Assay: Pharmacokinetic studies of RHa-5 and RHa-15, single IV or SC administration, compared with RDV
# Format: in vivo, animals (mammals)
# Details: for C0, plasma GS-441524 / C0, plasma Remdesivir / F AUC(0-inf), plasma GS-441524 / F AUC(0-inf), plasma Remdesivir / F AUC(0-last), plasma GS-441524 / F AUC(0-last), plasma Remdesivir / Clast, plasma GS-441524 / Clast, plasma Remdesivir / t1/2last, plasma GS-441524 / t1/2last, plasma Remdesivir / tlast, plasma GS-441524 / tlast, plasma Remdesivir: 6.17 mg/kg Remdesivir equivalent; for F AUC(0-inf), plasma GS-441524 / F AUC(0-inf), plasma Remdesivir / F AUC(0-last), plasma GS-441524 / F AUC(0-last), plasma Remdesivir: relative to RDV IV
# Method: Studies were undertaken to investigate the pharmacokinetic (PK) profile of two Remdesivir dendrimer conjugates following single intravenous (IV) or subcutaneous (SC) administration, and to compare them with that of Remdesivir (RDV).
# The study consisted of two phases (PK Phase 1 and PK Phase 2) in a total of 6 animals (age 36-48 months) each part separated by a washout period: • PK Phase 1: Four animals (mammals) were studied. One male and one female were administered RHa-5 (BHALys [Lys]2[Lys]2[Lys]8[Lys]16[Lys]32[(α-NH-6N-TDA-Remdesivir)32(ε-NH-COPEG2000)32] 20% Remdesivir loading w/w) (test item) intravenously; and one male and one female were administered RHa-5 subcutaneously. Blood samples were taken over a period of 7 days. A minimum washout period of 14 days took place between the last blood sampling point of the PK Phase 1 and the start of PK Phase 2. • PK Phase 2: Six animals (mammals) were studied. One male and one female were administered RHa-15 (BHALys[Lys]2[Lys]4[Lys]8[Lys]16[Lys]32[(α-NH-3′ O-TDA-Remdesivir)32(ε-NH-COPEG2000)32] 18.63% Remdesivir loading w/w) (test item) intravenously; one male and one female were administered RHa-15 subcutaneously; and one male and one female were administered RDV (reference item). Blood samples were taken over a period of 7 days.
# Formulation procedure: Test items RHa-5 and RHa-15 were reconstituted in Required volume of Water for injection (WFI), until a complete solution was obtained. The required volume of WFI was slowly added to RDV formulation (a lyophilate of 3.2% w/w RDV, 96.8% and sodium sulfobutylether-β-cyclodextrin adjusted to pH 3.5 with HCl) and shaken vigorously for 30 seconds. The solution was left for 20 minutes to ensure complete dissolution.
# Administration: The clinical Remdesivir loading dose in humans is 200 mg. […] Allometric conversion of the dose from humans to small mammals results in an equivalent test dose of 6.17 mg/kg Remdesivir. Test item was administered as follows:
# PK Phase 1: Two animal groups (A and B) of one male and one female each were administered test item RHa-5 at a Remdesivir equivalent dose of 6.17 mg/kg. Group A were administered the test item as a slow (30 seconds) intravenous bolus; and Group B were administered the test item over 30 seconds using the subcutaneous (SC) route into the back of the animal.
# PK Phase 2: Three animal groups (C, D and E) of one male and one female each were included in this study phase. Groups C and D were administered test item RHa-15 at a Remdesivir equivalent dose of 6.17 mg/kg using the IV and SC routes, respectively. Group E were administered 6.17 mg/kg of RDV intravenously. IV administrations were done as a slow (30 seconds) bolus. SC administrations were done over 30 seconds.
# Sampling schedule: Blood samples for PK analysis were collected as follows: • Day 1: pre-dose and at 15 min, 30 min, 1 h, 2 h, 4 h, 6 h, and 12 h after administration. • Days 2 to 8: 24, 48, 72, and 168 h after administration.
# A blood volume of 2 mL was collected at each time point from the jugular vein with a 20-21G needle into a lithium heparin tube, and transferred into a tube containing 200 μL 0.15 M citric acid. Immediately following blood collection, the blood samples were mixed gently and kept on crushed ice until centrifugation at 1500 G for 10 min at 4° C. within 30 minutes of collection. Each plasma sample was stored frozen (˜80±10° C.).
# The quantification range was 0.6 to 14400 ng/mL for Remdesivir and 0.6 to 14400 ng/mL for G441524.
# Non-compartmental pharmacokinetic analysis was adopted to obtain the pharmacokinetic parameters from the blood concentration profiles.
# The maximum concentration, Cmax, and time of maximum concentration, Tmax, were determined as the maximum measured concentration and its associated time. The area under the plasma concentration curve from 0 hours to the time of the last measurable concentration, AUC0-last, was calculated using linear trapezoidal estimation. […]
substance,measurement,setting,value
BHALys[Lys]2[Lys]4[Lys]8[Lys]16[Lys]32[(α-NH-6N-TDA-Remdesivir)32(ε-NH-COPEG2000)32] [RHa-5],Release profile for plasma Remdesivir,IV and SC,excellent sustained release profile
same,"C0, plasma GS-441524","IV, female (4F)",2 ng/mL
same,"C0, plasma Remdesivir","IV, female (4F)",4648 ng/mL
same,"F AUC(0-inf), plasma GS-441524","IV, female (4F)",0.8 x-fold
same,"F AUC(0-inf), plasma Remdesivir","IV, female (4F)",605.7 x-fold
same,"F AUC(0-last), plasma GS-441524","IV, female (4F)",0.8 x-fold
same,"F AUC(0-last), plasma Remdesivir","IV, female (4F)",667.2 x-fold
same,"Clast, plasma GS-441524","IV, female (4F; RDV 6F)",3.7 ng/mL
same,"Clast, plasma Remdesivir","IV, female (4F; RDV 6F)",22.0 ng/mL
same,"t1/2last, plasma GS-441524","IV, female (4F; RDV 6F)",39.6 h
same,"t1/2last, plasma Remdesivir","IV, female (4F; RDV 6F)",19.2 h
same,"tlast, plasma GS-441524","IV, female (4F; RDV 6F)",168 h
same,"tlast, plasma Remdesivir","IV, female (4F; RDV 6F)",168 h
same,"C0, plasma GS-441524","IV, male (1M)",2 ng/mL
same,"C0, plasma Remdesivir","IV, male (1M)",5701 ng/mL
same,"F AUC(0-inf), plasma GS-441524","IV, male (1M)",0.9 x-fold
same,"F AUC(0-inf), plasma Remdesivir","IV, male (1M)",437.4 x-fold
same,"F AUC(0-last), plasma GS-441524","IV, male (1M)",0.8 x-fold
same,"F AUC(0-last), plasma Remdesivir","IV, male (1M)",438.1 x-fold
same,"Clast, plasma GS-441524","IV, male (1M; RDV 3M)",3.1 ng/mL
same,"Clast, plasma Remdesivir","IV, male (1M; RDV 3M)",98.7 ng/mL
same,"t1/2last, plasma GS-441524","IV, male (1M; RDV 3M)",36.6 h
same,"t1/2last, plasma Remdesivir","IV, male (1M; RDV 3M)",29.5 h
same,"tlast, plasma GS-441524","IV, male (1M; RDV 3M)",168 h
same,"tlast, plasma Remdesivir","IV, male (1M; RDV 3M)",168 h
same,"C0, plasma GS-441524","IV, mean of male and female",2 ng/mL
same,"C0, plasma Remdesivir","IV, mean of male and female",5175 ng/mL
same,"Clast, plasma GS-441524","IV, mean of male and female",3 ng/mL
same,"Clast, plasma Remdesivir","IV, mean of male and female",60 ng/mL
same,"t1/2last, plasma GS-441524","IV, mean of male and female",38.1 h
same,"t1/2last, plasma Remdesivir","IV, mean of male and female",24.3 h
same,"tlast, plasma GS-441524","IV, mean of male and female",168 h
same,"tlast, plasma Remdesivir","IV, mean of male and female",168 h
same,"F AUC(0-inf), plasma GS-441524","IV, mean",0.8 x-fold
same,"F AUC(0-inf), plasma Remdesivir","IV, mean",521.6 x-fold
same,"F AUC(0-last), plasma GS-441524","IV, mean",1 x-fold
same,"F AUC(0-last), plasma Remdesivir","IV, mean",553 x-fold
same,"Clast, plasma GS-441524","SC, female (5F)",6.5 ng/mL
same,"Clast, plasma Remdesivir","SC, female (5F)",21.1 ng/mL
same,"tlast, plasma GS-441524","SC, female (5F)",168 h
same,"tlast, plasma Remdesivir","SC, female (5F)",168 h
same,"F AUC(0-last), plasma GS-441524","SC, female (5F)",0.7 x-fold
same,"F AUC(0-last), plasma Remdesivir","SC, female (5F)",113.8 x-fold
same,"Clast, plasma GS-441524","SC, male (2M)",8.8 ng/mL
same,"Clast, plasma Remdesivir","SC, male (2M)",34.4 ng/mL
same,"t1/2last, plasma GS-441524","SC, male (2M)",61.9 h
same,"t1/2last, plasma Remdesivir","SC, male (2M)",28.9 h
same,"tlast, plasma GS-441524","SC, male (2M)",168 h
same,"tlast, plasma Remdesivir","SC, male (2M)",168 h
same,"F AUC(0-inf), plasma GS-441524","SC, male (2M)",1.1 x-fold
same,"F AUC(0-inf), plasma Remdesivir","SC, male (2M)",146.8 x-fold
same,"F AUC(0-last), plasma GS-441524","SC, male (2M)",1.0 x-fold
same,"F AUC(0-last), plasma Remdesivir","SC, male (2M)",146.9 x-fold
same,"Clast, plasma GS-441524","SC, mean",7.7 ng/mL
same,"Clast, plasma Remdesivir","SC, mean",28 ng/mL
same,"t1/2last, plasma GS-441524","SC, mean",61.9 h
same,"t1/2last, plasma Remdesivir","SC, mean",28.9 h
same,"tlast, plasma GS-441524","SC, mean",168 h
same,"tlast, plasma Remdesivir","SC, mean",168 h
same,"F AUC(0-inf), plasma GS-441524","SC, mean",1.1 x-fold
same,"F AUC(0-inf), plasma Remdesivir","SC, mean",147 x-fold
same,"F AUC(0-last), plasma GS-441524","SC, mean",1 x-fold
same,"F AUC(0-last), plasma Remdesivir","SC, mean",130 x-fold
same,Plasma Remdesivir t1/2 and AUC compared to RDV delivered IV,delivered IV or SC,substantially extended plasma Remdesivir t1/2 and increased AUC

# Source: patent US20230263900A1, “DENDRIMER-DRUG CONJUGATE” (priority 2020, published 2023)
